Assay results published in patent US20040161746A1 (published 2004).

B1: myosin binding subunit 85 partial sequence, Prey-No. 11 (656 aa to 782 aa) (other, human, UniProt Q9BZL4 656-782, looked up)
chain: GPSARRQRWQRDLNPEPEPESEEPDGGFRTLYAELRRENERLREALTETTLRLAQLKVELERATQRQERFAERPALLELERFERRALERKAAELEEELKALSDLRADNQRLKDENAALIRVISKLSK
notes: range 656-782; Prey clone from a Human Brain cDNA library; The prey fusion domain is not described
B2: myosin binding subunit 85 partial sequence, Prey-No. 3 (590 aa to 782 aa) (other, human, UniProt Q9BZL4 590-782, looked up)
chain: PSRRPRVPGVENSDSPAQRAEAPDGQGPGPQAAREHRKVGKEWRGPAEGEEAEPADRSQESSTLEGGPSARRQRWQRDLNPEPEPESEEPDGGFRTLYAELRRENERLREALTETTLRLAQLKVELERATQRQERFAERPALLELERFERRALERKAAELEEELKALSDLRADNQRLKDENAALIRVISKLSK
notes: range 590-782; Prey clone from a Human Brain cDNA library in the yeast two-hybrid system
B3: myosin binding subunit 85 partial sequence, Prey-No. 4 (590 aa to 782 aa) (other, human, UniProt Q9BZL4 590-782, looked up)
chain: PSRRPRVPGVENSDSPAQRAEAPDGQGPGPQAAREHRKVGKEWRGPAEGEEAEPADRSQESSTLEGGPSARRQRWQRDLNPEPEPESEEPDGGFRTLYAELRRENERLREALTETTLRLAQLKVELERATQRQERFAERPALLELERFERRALERKAAELEEELKALSDLRADNQRLKDENAALIRVISKLSK
notes: range 590-782; Prey clone from a Human Brain cDNA library; It has the same amino acid range as Prey-No. 3 and differs only in 3'-UTR length; The prey fusion domain is not described

Target: T1, B1153 protein (human, UniProt Q96JG6 1-964)
T1 construct: also called indicator protein
T1 sequence: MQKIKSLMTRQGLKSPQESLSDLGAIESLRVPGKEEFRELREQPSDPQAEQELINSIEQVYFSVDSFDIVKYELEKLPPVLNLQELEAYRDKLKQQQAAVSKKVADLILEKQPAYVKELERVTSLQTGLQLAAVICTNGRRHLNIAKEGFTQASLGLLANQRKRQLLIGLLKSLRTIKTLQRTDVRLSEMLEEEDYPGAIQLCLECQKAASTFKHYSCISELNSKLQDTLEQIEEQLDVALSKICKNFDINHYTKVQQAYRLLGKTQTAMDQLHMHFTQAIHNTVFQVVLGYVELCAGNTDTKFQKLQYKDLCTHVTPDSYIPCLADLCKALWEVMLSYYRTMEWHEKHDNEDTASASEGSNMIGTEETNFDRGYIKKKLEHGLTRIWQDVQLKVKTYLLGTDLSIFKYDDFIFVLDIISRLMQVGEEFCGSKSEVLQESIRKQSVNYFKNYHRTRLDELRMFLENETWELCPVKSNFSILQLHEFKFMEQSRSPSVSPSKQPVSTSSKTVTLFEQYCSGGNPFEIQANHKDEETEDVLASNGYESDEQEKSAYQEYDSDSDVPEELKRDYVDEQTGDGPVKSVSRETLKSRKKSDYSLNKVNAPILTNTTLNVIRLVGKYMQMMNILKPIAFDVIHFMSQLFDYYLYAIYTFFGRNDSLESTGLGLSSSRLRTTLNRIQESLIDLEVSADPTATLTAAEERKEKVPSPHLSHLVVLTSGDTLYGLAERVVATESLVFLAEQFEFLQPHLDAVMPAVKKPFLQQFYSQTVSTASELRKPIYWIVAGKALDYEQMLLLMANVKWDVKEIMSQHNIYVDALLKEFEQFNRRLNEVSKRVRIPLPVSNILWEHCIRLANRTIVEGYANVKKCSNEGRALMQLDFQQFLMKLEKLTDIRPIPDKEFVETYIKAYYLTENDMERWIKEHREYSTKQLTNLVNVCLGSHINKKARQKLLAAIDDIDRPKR
Experiment: yeast two-hybrid (PROQUEST, GAL4), B1153 full-length ORF as bait, Human Brain cDNA library prey
Description: By the PROQUEST™ TWO-Hybrid system (Invitrogen) utilizing the in vivo gene expression system of GAL4 series yeast, a search for a protein that interacts with the protein of this invention was carried out. Screening for a protein that interacts with B1153 was conducted for the Human Brain cDNA library with the full-length ORF region (86 bp to 2977 bp) of the B1153 gene as a bait. In this case, protocol according to the manual attached to the system was used.

Binding result, binds:
B1
B2
B3
